Patent US20170247454A1 (Hoffmann-La Roche, published 2017)

Legend:
[1] = target: T1, PD1 glycosylated at Asn58 (human PD1-ECD) (human, UniProt Q15116 25-170, N-glycosylated at Asn58 (position on SEQ ID NO: 70)); assay: SPR (Biacore T200, 25 °C), antibody captured by anti-human IgG, PD1-ECD as analyte, 1:1 Langmuir fit; PD1 glycosylated at Asn58
T1 construct: also called glycosylated PD-1; glycosylated recombinant PD1
Excerpt: (§1) A surface plasmon resonance (SPR) based assay has been used to determine the kinetic parameters of the binding between […]. Therefore, an anti-human IgG was immobilized by amine coupling to the surface of a (Biacore) CM5 sensor chip. The samples were then captured and hu PD1-ECD was bound to them. The sensor chip surface was regenerated after each analysis cycle. The equilibrium constant and kinetic rate constants were finally gained by fitting the data to a 1:1 langmuir interaction model.
(§2) The samples were injected for 20 seconds with a concentration of 10 nM and bound to the second flow cell.
(§3) Finally the double referenced data was fitted to a 1:1 langmuir interaction model with the Biacore T200 Evaluation Software.

[2] = target: T1, PD1 glycosylated at Asn58 (human …); assay: SPR (Biacore T200, 25 °C), antibody captured by anti-human IgG, PD1-ECD as analyte, 1:1 Langmuir fit
Excerpt: as §1, §2, §3

[3] = target: T2, PD1 aglycosylated at Asn58 (human PD1-ECD) (human, UniProt Q15116 25-170, not glycosylated at Asn58 (position on SEQ ID NO: 70)); assay: as above
T2 construct: also called aglycosylated PD-1; non-glycosylated recombinant human PD1
Excerpt: as §1, §2, §3

[4] = target: T2, PD1 aglycosylated at Asn58 (human …); assay: SPR (Biacore T200, 25 °C), antibody captured by anti-human IgG, PD1-ECD as analyte, 1:1 Langmuir fit; PD1 aglycosylated at Asn58
Excerpt: as §1, §2, §3

T1 sequence (Q15116 25-170 limits assumed): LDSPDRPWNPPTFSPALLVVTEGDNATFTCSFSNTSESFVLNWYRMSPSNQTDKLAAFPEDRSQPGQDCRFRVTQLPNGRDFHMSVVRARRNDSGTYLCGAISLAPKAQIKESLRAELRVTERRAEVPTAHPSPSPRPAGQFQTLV
T2 sequence (Q15116 25-170 limits assumed): as above

B1: PD1-0103-0312 (antibody, V domains shown)
VH: EVQLLESGGGLVQPGGSLRLSCAASGFSFSSYTMSWVRQAPGKGLEWVATISGGGRDIYYPDSVKGRFTISRDNSKNTLYLQMNSLRAEDTAVYYCVLLTGRVYFALDSWGQGTLVTVSS
VL: DIVMTQSPDSLAVSLGERATINCKASESVDTSDNSFIHWYQQKPGQSPKLLIYRSSTLESGVPDRFSGSGSGTDFTLTISSLQAEDVAVYYCQQNYDVPWTFGQGTKVEIK
Kd [1]: 0.0961 nM
koff [2]: 7.46e-05 s⁻¹
kon [2]: 777000 M⁻¹ s⁻¹
koff [3]: 0.027 s⁻¹
kon [3]: 336000 M⁻¹ s⁻¹
Kd [4]: 80.2 nM
